Test results as given in patent publication US20170342151A1 (Memorial Sloan Kettering, published 2017).
Where two headings read alike, the source gives them in different places.

T1: D2.8.11, a peptide epitope for murine 763 (human)
T1 construct: also called antigen D2.8.11; peptide D2.8.11
T1 chain: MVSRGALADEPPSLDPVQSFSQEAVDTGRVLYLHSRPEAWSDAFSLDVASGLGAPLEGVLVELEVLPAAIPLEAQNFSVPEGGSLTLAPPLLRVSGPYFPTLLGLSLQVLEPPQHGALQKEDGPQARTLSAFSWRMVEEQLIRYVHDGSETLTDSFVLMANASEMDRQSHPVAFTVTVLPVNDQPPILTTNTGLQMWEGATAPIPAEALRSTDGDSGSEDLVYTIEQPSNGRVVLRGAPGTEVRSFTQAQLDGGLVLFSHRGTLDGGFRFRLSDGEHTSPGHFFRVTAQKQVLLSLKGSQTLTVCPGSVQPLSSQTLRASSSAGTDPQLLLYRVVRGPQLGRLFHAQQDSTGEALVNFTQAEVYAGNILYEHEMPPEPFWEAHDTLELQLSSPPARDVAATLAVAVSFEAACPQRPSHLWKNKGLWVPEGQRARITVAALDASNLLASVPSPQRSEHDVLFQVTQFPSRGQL

B1: hu763IgG1n H2-L2, humanized 763 H2 and L2 in IgG1 format with variant glycosylation (antibody)
heavy: not shown
light: EIVLTQSPATLSVSPGETVTLSCRASQTIYKNLHWYQQKSGLSPRLLIKYGSDSISGIPARFSGSGSGTDYTLTINSVEPEDEGIYYCLQGYSTPWTFGQGTKLEIKRTVAAPSVFIFPPSDEQLKSGTASVVCLLNNFYPREAKVQWKVDNALQSGNSQESVTEQDSKDSTYSLSSTLTLSKADYEKHKVYACEVTHQGLSSPVTKSFNRGEC
modifications: variant Fc glycosylation from expression in GnT1-deficient CHO cells (78.3% mannose, 20.5% N-acetyl glucosamine, 1.2% glucose; no fucose)
notes: also called hu763-H2L2-IgG1n
B2: hu763-HC-OKT3, humanized 763 IgG1 with huOKT3 scFv on the C-terminus of the heavy chain (bispecific antibody)
heavy: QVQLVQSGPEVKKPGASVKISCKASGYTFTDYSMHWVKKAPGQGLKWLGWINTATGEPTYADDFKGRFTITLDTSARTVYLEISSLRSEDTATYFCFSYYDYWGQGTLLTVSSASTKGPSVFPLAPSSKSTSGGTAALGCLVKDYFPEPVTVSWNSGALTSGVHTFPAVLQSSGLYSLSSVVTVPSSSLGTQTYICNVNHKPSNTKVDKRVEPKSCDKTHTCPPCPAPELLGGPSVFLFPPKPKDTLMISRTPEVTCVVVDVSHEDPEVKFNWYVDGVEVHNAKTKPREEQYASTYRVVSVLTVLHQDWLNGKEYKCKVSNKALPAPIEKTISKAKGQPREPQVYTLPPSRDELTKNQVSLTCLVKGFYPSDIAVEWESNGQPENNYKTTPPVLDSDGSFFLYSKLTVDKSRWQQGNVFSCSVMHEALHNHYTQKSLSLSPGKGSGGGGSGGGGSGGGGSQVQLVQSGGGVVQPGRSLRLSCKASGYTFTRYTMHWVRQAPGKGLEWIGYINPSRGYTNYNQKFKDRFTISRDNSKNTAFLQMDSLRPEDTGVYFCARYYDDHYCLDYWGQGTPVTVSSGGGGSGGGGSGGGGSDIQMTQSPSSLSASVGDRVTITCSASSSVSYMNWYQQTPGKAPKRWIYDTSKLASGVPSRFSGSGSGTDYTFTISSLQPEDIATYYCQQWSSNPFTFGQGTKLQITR
light: B1 light
notes: IgG-scFv format, aglycosylated Fc (N297A); also called hu763-HC-huOKT3; hu763-BsAb
B3: hu763IgG1 H2-L2, humanized 763 H2 and L2 in IgG1 format (antibody)
heavy: not shown
light: B1 light
notes: also called parental hu763
B4: hu763IgG4 H2-L2, humanized 763 H2 and L2 in IgG4 format (antibody)
heavy: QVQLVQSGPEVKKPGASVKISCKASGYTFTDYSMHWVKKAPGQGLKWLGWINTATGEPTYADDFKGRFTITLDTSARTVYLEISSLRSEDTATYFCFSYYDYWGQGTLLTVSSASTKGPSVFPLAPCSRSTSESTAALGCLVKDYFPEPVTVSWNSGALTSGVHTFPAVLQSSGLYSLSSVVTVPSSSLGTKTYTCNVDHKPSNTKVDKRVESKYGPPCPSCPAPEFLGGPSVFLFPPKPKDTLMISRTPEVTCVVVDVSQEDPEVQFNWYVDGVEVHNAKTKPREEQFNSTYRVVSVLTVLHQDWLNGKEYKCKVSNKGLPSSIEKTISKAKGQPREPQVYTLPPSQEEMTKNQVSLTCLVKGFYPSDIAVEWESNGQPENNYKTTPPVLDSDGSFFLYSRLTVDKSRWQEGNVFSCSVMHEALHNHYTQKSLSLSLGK
light: B1 light
B5: murine anti-CSPG4 antibody 763.74 (antibody, V domains shown)
VH: QIQLVQSGPELKKPGETVKISCKASGYTFTDYSMHWVKKTPGKGLKWLGWINTATGEPTYADDFKGRFAISLETSARTVYLQINNLRNEDTATYFCFSYYDYWGQGTTLTVS
VL: DIKLSQSPSILSVTPGETVSLSCRASQTIYKNLHWYQQKSHRSPRLLIKYGSDSISGIPSRFTGSGSGTDYTLNINSVKPEDEGIYYCLQGYSTPWTFGGGTKLEIK
notes: also called m763
B6: ch763IgG1, chimeric 763 HC and LC in IgG1 format (antibody, V domains shown)
VH: QIQLVQSGPELKKPGETVKISCKASGYTFTDYSMHWVKKTPGKGLKWLGWINTATGEPTYADDFKGRFAISLETSARTVYLQINNLRNEDTATYFCFSYYDYWGQGTTLTVSA
VL: DIKLSQSPSILSVTPGETVSLSCRASQTIYKNLHWYQQKSHRSPRLLIKYGSDSISGIPSRFTGSGSGTDYTLNINSVKPEDEGIYYCLQGYSTPWTFGGGTKLEIKR

How the values were obtained:
[1] = biological target: T2, anti-763 idiotype antibody MK2-23; experiment: SPR, Biacore T-100, MK2-23 on CM5 chip, monovalent analyte model
T2 construct: Immobilized on the CM5 chip; also called anti-idiotype MK2-23
Protocol: (§1) CMS sensor chip (Research grade) and related reagents were purchased from Biacore USA (Piscataway, N.J.). […] The system first run 20× cycles of buffer only to get stable baseline levels. […] Samples (60 μL) were injected over the sensor surface at a flow rate of 30 μL/min over 2 min. Association time was set for one minute; dissociation time was set for from five minutes to 30 minutes. Following completion of the association phase, dissociation was monitored in HBS-E buffer containing 250 mM NaCl at the same flow rate. At the end of each cycle, the surface was regenerated using 50 μL 20 mM NaOH at a flow rate of 50 μL/min over one minute and 100 μL 4M MgCl₂ at a flow rate of 50 μL/min over two minutes.

[2] = biological target: T1, D2.8.11, a peptide epitope for murine …; experiment: SPR, Biacore T-100, D2.8.11 on CM5 chip, bivalent analyte model
Protocol: as §1

[3] = biological target: T3, human chondroitin sulfate proteoglycan 4 (CSPG4) on cells (human, UniProt Q6UVK1 30-2322); experiment: ELISA on M14 cell-coated plates, HRP goat anti-human secondary
T3 construct: Target on CSPG4-positive M14 cells (FACS, cell ELISA) and in frozen human tissue sections (IHC); also called HMW-MAA; MCSP
Protocol: Hu763-IgG1 was also subjected to five cycles of a freeze and thaw process. […] Antigen binding was expressed as % of MFI of maximum binding at 5 μg. E, ELISA analysis of hu763-IgG1 and hu763-IgG1n on M14 cells coated plates. Binding was detected with HRP conjugated goat anti-human secondary antibody. Hu763-IgG1n was subjected to five cycles of a freeze and thaw process.
An ELISA method using coated M14 as antigen was also used to assay hu763-IgG1 and hu763-IgG1n binding (FIG. 3E). […] Hu763-IgG1n still bound to M14 cells well after subjected to five cycles of freezing and thawing process.

[4] = biological target: CD3 antigen (surface plasmon resonance); experiment: SPR, Biacore, two state reaction model
[5] = biological target: T2, anti-763 idiotype antibody MK2-23; experiment: SPR, Biacore T-100, MK2-23 on CM5 chip, monovalent analyte model; remark: listed apart in the source
Protocol: as §1

[6] = biological target: T1, D2.8.11, a peptide epitope for murine …; experiment: SPR, Biacore T-100

T3 sequence (Q6UVK1 30-2322 limits assumed): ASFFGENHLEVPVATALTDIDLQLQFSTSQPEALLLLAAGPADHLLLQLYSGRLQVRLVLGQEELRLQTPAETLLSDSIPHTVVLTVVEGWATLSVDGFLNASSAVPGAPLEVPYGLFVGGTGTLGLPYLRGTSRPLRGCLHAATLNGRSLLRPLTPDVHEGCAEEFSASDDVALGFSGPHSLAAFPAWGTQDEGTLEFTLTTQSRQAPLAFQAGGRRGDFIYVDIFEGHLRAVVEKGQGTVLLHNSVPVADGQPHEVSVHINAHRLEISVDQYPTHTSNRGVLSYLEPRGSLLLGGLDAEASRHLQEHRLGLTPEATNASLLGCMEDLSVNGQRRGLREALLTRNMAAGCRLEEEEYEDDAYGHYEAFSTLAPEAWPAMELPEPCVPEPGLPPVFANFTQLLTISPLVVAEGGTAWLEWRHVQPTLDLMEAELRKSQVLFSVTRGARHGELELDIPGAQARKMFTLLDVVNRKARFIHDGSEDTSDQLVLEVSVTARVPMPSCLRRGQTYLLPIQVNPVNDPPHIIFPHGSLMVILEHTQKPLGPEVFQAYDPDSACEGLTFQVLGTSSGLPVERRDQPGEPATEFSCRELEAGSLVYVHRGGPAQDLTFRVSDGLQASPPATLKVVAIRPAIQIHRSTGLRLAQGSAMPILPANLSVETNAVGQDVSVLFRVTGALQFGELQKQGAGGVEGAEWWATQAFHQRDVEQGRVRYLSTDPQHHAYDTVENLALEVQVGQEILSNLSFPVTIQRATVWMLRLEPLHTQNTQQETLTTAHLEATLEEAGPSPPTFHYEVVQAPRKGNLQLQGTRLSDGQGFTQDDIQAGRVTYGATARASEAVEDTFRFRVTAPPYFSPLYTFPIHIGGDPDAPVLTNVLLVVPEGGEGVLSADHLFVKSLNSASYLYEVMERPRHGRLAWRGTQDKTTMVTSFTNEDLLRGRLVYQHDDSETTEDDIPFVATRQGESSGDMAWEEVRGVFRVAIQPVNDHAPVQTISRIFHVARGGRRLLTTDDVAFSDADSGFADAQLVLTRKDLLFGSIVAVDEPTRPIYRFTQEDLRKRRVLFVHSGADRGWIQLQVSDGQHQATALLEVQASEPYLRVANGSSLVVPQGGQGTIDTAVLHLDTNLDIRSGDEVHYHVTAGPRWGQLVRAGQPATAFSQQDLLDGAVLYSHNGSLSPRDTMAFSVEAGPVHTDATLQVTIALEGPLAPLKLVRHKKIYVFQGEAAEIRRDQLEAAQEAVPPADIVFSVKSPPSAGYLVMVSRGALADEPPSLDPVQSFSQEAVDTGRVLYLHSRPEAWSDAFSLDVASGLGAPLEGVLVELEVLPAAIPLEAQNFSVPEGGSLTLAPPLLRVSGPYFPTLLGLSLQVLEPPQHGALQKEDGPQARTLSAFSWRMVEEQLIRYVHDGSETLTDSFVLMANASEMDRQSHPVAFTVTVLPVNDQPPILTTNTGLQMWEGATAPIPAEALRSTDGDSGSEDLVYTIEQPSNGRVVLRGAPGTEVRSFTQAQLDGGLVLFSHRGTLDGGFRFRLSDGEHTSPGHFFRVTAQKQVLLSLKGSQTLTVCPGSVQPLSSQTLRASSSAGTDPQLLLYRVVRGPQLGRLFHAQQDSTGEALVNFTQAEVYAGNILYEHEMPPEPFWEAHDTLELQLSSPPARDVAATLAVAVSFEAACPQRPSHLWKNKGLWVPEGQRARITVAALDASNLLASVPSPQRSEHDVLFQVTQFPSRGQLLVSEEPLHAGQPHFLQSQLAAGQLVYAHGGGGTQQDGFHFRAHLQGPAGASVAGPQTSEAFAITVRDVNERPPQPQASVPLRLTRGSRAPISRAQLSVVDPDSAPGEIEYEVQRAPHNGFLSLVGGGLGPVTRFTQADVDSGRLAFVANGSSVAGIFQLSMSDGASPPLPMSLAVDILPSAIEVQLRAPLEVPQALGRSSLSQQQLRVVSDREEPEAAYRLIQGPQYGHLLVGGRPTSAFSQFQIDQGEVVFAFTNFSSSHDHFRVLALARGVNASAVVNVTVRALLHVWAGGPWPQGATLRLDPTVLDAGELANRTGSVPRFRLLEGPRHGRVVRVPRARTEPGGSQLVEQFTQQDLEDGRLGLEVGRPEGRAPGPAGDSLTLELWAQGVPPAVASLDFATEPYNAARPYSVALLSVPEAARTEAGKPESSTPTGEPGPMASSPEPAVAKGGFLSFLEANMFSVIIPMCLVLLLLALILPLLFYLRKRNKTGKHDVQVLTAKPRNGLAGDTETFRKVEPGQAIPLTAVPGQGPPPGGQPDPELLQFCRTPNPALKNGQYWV

Row | Binder | Kd [1] [nM] | koff [1] [s⁻¹] | kon [1] [M⁻¹ s⁻¹] | Kd [2] [nM] | koff [2] [s⁻¹] | kon [2] [M⁻¹ s⁻¹] | binding result [3] | Kd [4] [nM] | koff [4] [s⁻¹] | kon [4] [M⁻¹ s⁻¹] | Kd [5] [nM] | koff [5] [s⁻¹] | kon [5] [M⁻¹ s⁻¹] | Kd [6] [nM] | kon [6] [M⁻¹ s⁻¹]
1 | B1 | 0.449 | 7.54e-05 | 168000 | 1.15 | 3.28e-05 | 28500 | binds | – | – | – | – | – | – | – | –
2 | B2 | – | – | – | – | – | – | – | 231 | 0.0696 | 302000 | – | – | – | – | –
3 | B3 | – | – | – | 1.29 | 3.81e-05 | 29600 | – | – | – | – | 1.75 | 0.000181 | 103000 | – | –
4 | B4 | 0.48 | 8.01e-05 | 167000 | 1.22 | 3.5e-05 | 28700 | – | – | – | – | – | – | – | – | –
5 | B5 | 0.582 | 8.5e-05 | 146000 | 1.34 | 3.89e-05 | 29000 | – | – | – | – | 2.09 | 0.000163 | 78200 | 1.3 | 29600
6 | B6 | – | – | – | 84 | 0.00295 | 35100 | – | – | – | – | 1.89 | 0.000339 | 179000 | – | –
